# PMC7542365 (mBio, 2020)
# T1: A/Brevig Mission/1/1918 H1N1 NA, soluble tetramer with His tag attached (influenza A virus A/Brevig …)
# T1 chain: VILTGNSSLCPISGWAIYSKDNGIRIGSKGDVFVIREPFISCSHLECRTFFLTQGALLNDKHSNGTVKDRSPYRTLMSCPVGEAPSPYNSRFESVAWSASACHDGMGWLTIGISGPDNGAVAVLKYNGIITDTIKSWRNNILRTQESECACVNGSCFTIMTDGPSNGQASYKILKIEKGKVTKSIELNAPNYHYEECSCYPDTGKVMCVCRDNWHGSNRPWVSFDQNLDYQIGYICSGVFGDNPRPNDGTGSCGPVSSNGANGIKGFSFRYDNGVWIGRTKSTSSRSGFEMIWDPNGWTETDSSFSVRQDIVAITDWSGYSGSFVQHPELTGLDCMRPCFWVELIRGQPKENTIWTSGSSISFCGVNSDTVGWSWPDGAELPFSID
# B1: Z2B3-D102R Fab (Fab, V domains shown)
# VH: EVQLVQSGAEVKKPGSSVKVSCKASGGPFSSYGFSWVRQAPGQGLEWMGGIIPVYGTTNYAQKFQGRVTITADESTSTAYMELSSLKSEDTAVYYCARDLQRTPMVDRIIGSYYYYNGLDVWGQGTTVTVSS
# VL: QSVLTQPASVSGSPGQSITISCTGASSDVGDYNYVSWYQQHPGKAPKLMIYDVSNRPSGVSNRFSGSKSGDTASLTISGLQAEDEADYYCSSYTRSSSVVFGGGTKLTVL
# Target: T1, A/Brevig Mission/1/1918 H1N1 NA, …
# Assay: SPR
binder,measurement,value
B1,Kd,1670 nM
